Source: patent US20060263381A1 (INSTITUT GUSTAVE ROUSSY, published 2006)

B1: p248G9 (YLEYRQVPG) (peptide)
peptide: YLEYRQVPG
notes: Native peptide of MAGE-A2, -A3, -A4, -A6, -A10, -A12
B2: p248V9 (YLEYRQVPV) (peptide)
peptide: YLEYRQVPV
notes: Variant of p248G9 and p248D9 with valine at P9
B3: p174 (CLGLSYDGLL) (peptide)
peptide: CLGLSYDGLL
notes: Native peptide of MAGE-A1, -A2, -A3, -A4, -A6, -A12; It is named by the position of its first residue in MAGE-A1
B4: p174Y1V10 (YLGLSYDGLV) (peptide)
peptide: YLGLSYDGLV
notes: Variant of p174 with tyrosine at P1 and valine at P10
B5: p911Y1V9 (YVWELMTFGV) (peptide)
peptide: YVWELMTFGV
notes: It is a 10-mer, although the label says V9

target: T1, HLA-A*0201 molecule (human); assay: T2 cell HLA-A*0201 stabilisation, flow cytometry with BB7.2
T1 construct: MHC class I molecule on T2 cells, to which the test peptides are added from outside
Method: (§1) The cells are then analyzed by flow cytometry. […] The mean RA for each peptide is determined from at least three independent experiments. In all the experiments, 20& of the maximum fluorescence was obtained for 1 to 3 μM of the reference peptide.

Binder | RA (relative affinity)
B1 | > 27 ratio to reference peptide HIVpol 589
B2 | 1.8 ratio to reference peptide HIVpol 589
YLEYRQVPD (Native peptide of MAGE-A1) [p248D9 (YLEYRQVPD)] | 22.5 ratio to reference peptide HIVpol 589
YLFLWGPRA (Variant of p262 with leucine at P2) [p262L2 (YLFLWGPRA)] | 0.2 ratio to reference peptide HIVpol 589
YLGLSYDGLL (Variant of p174 with tyrosine at P1) [p174Y1 (YLGLSYDGLL)] | 13 ratio to reference peptide HIVpol 589
B3 | 41 ratio to reference peptide HIVpol 589
B4 | 2.5 ratio to reference peptide HIVpol 589

target: T1, HLA-A*0201 molecule; assay: as above; remark: another data set of the same source
Method: as §1

Binder | RA (relative affinity)
B5 | 2.03 ratio to reference peptide HIVpol 589

target: T1, HLA-A*0201 molecule; assay: T2 cells loaded with 100 µM peptide, Brefeldin A, flow cytometry with BB7.2 at 0-8 h

Binder | DC50 (time for loss of 50% of the complexes)
B1 | < 2 h
B2 | 4 h
YLEYRQVPD (Native peptide of MAGE-A1) [p248D9 (YLEYRQVPD)] | < 2 h
YLFLWGPRA (Variant of p262 with leucine at P2) [p262L2 (YLFLWGPRA)] | 6 h
YLGLSYDGLL (Variant of p174 with tyrosine at P1) [p174Y1 (YLGLSYDGLL)] | < 2 h
B3 | < 2 h
B4 | < 2 h
